The values that follow come from PMC11672684 (Cell Reports, 2024).

One assay deals with H5 HA (Influenza A virus H5, assay strain not …, UniProt A5A5L7). Kind of assay: ELISA + BLI. The conditions noted are these: both partners purified. In general terms: In an ELISA, binding on a coated surface is turned into a signal by an enzyme label.
The next assay addresses H7 A/Anhui/1/2013 HA (Influenza A virus A/Anhui/1/2013 (H7N9), UniProt A0A024E3P0). The assay is described as follows: BLI; […], dissociation 5 min; 1% BSA in PBS; 30°C; […]. The conditions noted are these: both partners purified. (Biolayer interferometry detects binding as a change in optical thickness at a sensor tip.)

B1: 43_S0008 (antibody, V domains shown)
VH: QVQLVQSGAEVKKPGSSVKVSCKASGGTFRTFGISWVRQAPGQGLEWMGWIIPIIGTPNYAQKFQGRVIITADESSNTAYMELNSLKSEDTAVYYCAKEGRALLRYFDWLPLDAFDIWGQGTMVTVSS
VL: DIVLTQTPLSLPVSLGDQASISCRSSQSLVHSDGNTYLHWYLQKPGQSPKLLIYKVSNRFSGVPDRFSGSGSGTDFTLKISRVEAEDLGVYFCSQSTHVPPLTFGAGTKLELK
notes: also called mAb 43_S0008; IGHV1-69 + IGHD3-9 mAb 43_S0008; source: Expi293 cells, purified (protein A)
Consider B1, for which the binding result with H5 HA and with H7 A/Anhui/1/2013 HA was “binds” throughout.
